{
  "source": "the DeepSol protein solubility set",
  "data": [
    {"test": "soluble on expression in E. coli; label from the status in PepcDB or PDB records", "values": [
      {"sequence": "MGSDKIHHHHHHMERDMICTPISYQNKTSAQTFSNFLKHTRTENNLSQEDLCGLLRQKSCLFDTLDSITISRWERGVNIPSLAKQSEIVEIFGSELFDIYREDKKFINEGLALINLFESNIERSDHPYYRNTPYRVEFIESHHHNFMALLQLSLVYESNPRLSFVSRNLSQPFFHGLSLVVAFSSGDQIVGHSLFCRSQGKIALEFMNDEVDLFEVINHNSQALPDTLMVFSSFGVTPYIENYMMSVYLNELAASRSLKFLSFNICDESLKRKLTQFKLPIFKVRTIEGCCKPIKNYSFFSSRTEVMANRNLLKLSVIPSSKSQTIDPIFFMQLETPI", "soluble on expression in E. coli": "not soluble"},
      {"sequence": "MKTLVHLSDLHFGKTESHLVDAIAAEVRAVDSDLLVVSGDLTQRARKDEFLQARAFLDSLPGPRIVVPGNHDVPLWNVFARAMTPLSRYRRYIEADTDPFYADSEVAVVGINTARSLTIKNGRINVRQLKAATEKFAYMSDDITRIVVTHHPFEGLDLESDDGIVARADLAMDAFSRSGVDIILSGHQHLHRAGSSARRYLIDGYAALLVQAGTAVSSRVRQAANSFNIIRIEHPRISIECRAWQSLQSGFETSASYSFRQGSGGWEPALEHHHHHH", "soluble on expression in E. coli": "not soluble"},
      {"sequence": "MSLSLRDEALEMHKRNQGKLEVKPNVKVTNKEELSLAYSPGVAEPCKDIYEDKRKVYDYTIKGNTVAVITDGTAVLGLGNIGPEASIPVMEGKAVLFKSFAGINGVPIALNTTDTEEIIKTVKLLEPNYGGINLEDISAPRCFEIEERLKKETNIPVFHDDQHGTAIVTMAGLVNALRVVNKDIAKIKVVLNGAGAAGIAIVKLLYAYGVRNMVMCDSRGAIFEGRSYGMNPTKDVVAKWTNKDKIEGSLEEVVKDADVFIGVSVANALSQDMVKSMADNPIIFAMANPNPEIIPDDAKAAGARVVGTGRSDYPNQINNVLAFPGIFRGALEVEATHINEEMKKAAVEAIADLIDSSELNEDYCIPGPFDKRVAPSVARNVAKAAMESGVARIEVDPQDVYDKTMKLTDLQEGHHHHHH", "soluble on expression in E. coli": "soluble"},
      {"sequence": "MNDVQQAINSDDIPLTDELVVSYLQDNPEFFNRNNSLMTGLRLNDEQRGTVSLVERQQQQLRQKVYGLEDEITQLMSVANHNEQLFVLYSDLYLRLLDCQSAEELLDCLHQATTELLSLSSFKLWLVSGNNTEVAHHSLSTNDCAGVMQNRLTNDEYYFGRLQESEQTLIFSKPCLGSVVLIKLTHDEQAVGFLAIGSEDAHHFDPRMDTLLLNQFKRLVAKLLHQQLSMLEHHHHHH", "soluble on expression in E. coli": "soluble"},
      {"sequence": "MSDNLVLPTYDDVASASERIKKFANKTPVLTSSTVNKEFVAEVFFKCENFQKMGAFKFRGALNALSQLNEAQRKAGVLTFSSGNHAQAIALSAKILGIPAKIIMPLDAPEAKVAATKGYGGQVIMYDRYKDDREKMAKEISEREGLTIIPPYDHPHVLAGQGTAAKELFEEVGPLDALFVCLGGGGLLSGSALAARHFAPNCEVYGVEPEAGNDGQQSFRKGSIVHIDTPKTIADGAQTQHLGNYTFSIIKEKVDDILTVSDEELIDCLKFYAARMKIVVEPTGCLSFAAARAMKEKLKNKRIGIIISGGNVDIERYAHFLSQ", "soluble on expression in E. coli": "soluble"},
      {"sequence": "MAVDDAQALALFLRDRTGRSSHTLRAYGAELRRLMRWCGTHGFGPFSDLTRQQLLAYRHTLEHGSSGTANTTPPLSEATRTRALAVVASLYGYWYATGYLHANPAAGLSAGSRLEHHHHHH", "soluble on expression in E. coli": "not soluble"},
      {"sequence": "GLFDKLKSLVSDDKKDTGTIEIIAPLSGEIVNIEDVPDVVFAEKIVGDGIAIKPTGNKMVAPVDGTIGKIFETNHAFSIESDSGVELFVHFGIDTVELKGEGFKRIAEEGQRVKVGDTVIEFDLPLLEEKAKSTLTPVVISNMDEIKELIKLSGSVTVGETPVIRIKK", "soluble on expression in E. coli": "soluble"},
      {"sequence": "MHVIDLSYFVKIYRSKNKHISVNFLRHLHRAGDLHLSGTTRCIYEDVIMKKCLTLLIATVLSGISLTAYAAQPMSNLDSGQLRPAGTVSATGASNLSDLEDKLAEKAREQGAKGYVINSAGGNDQMFGTATIYK", "soluble on expression in E. coli": "soluble"},
      {"sequence": "LGGVFKKAGSKGLKGVRLVISDAHEGLKAAIKKILTGSAWQRCRVHFMRNVLSQVPKHYQGMVSSIIRTIFAQNDQESAREQLRHVVDELKNRFPKAMKILEEAEEEILAYMAFPREHWAQIHSTNPLERLNREIRRRTDVVCIFPNREAVIRLVGAMLMEQNDEWKVGRRYFSLESMSKITSINEFTLTPVALLHK", "soluble on expression in E. coli": "soluble"},
      {"sequence": "MSSNNAGESDGTGPALPTVWPGNAYPLGATYDGAGTNFSLFSEIAEKVELCLIDEDGVESRIPLDEVDGYVWHAYLPNITPGQRYGFRVHGPFDPAAGHRCDPSKLLLDPYGKSFHGDFTFGQALYSYDVNAVDPDSTPPMVDSLGHTMTSVVINPFFDWAYDRSPRTPYHETVIYEAHVKGMTQTHPSIPPELRGTYAGLAHPVIIDHLNELNVTAVELMPVHQFLHDSRLLDLGLRNYWGYNTFGFFAPHHQYASTRQAGSAVAEFKTMVRSLHEAGIEVILDVVYNHTAEGNHLGPTINFRGIDNTAYYRLMDHDLRFYKDFTGTGNSLNARHPHTLQLIMDSLRYWVIEMHVDGFRFDLASTLARELHDVDRLSAFFDLVQQDPVVSQVKLIAEPWDVGEGGYQVGNFPGLWTEWNGKYRDTVRDYWRGEPATLGEFASRLTGSSDLYEATGRRPSASINFVTAHDGFTLNDLVSYNDKHNEANGENNRDGESYNRSWNCGVEGPTDDPDILALRARQMRNMWATLMVSQGTPMIAHGDEIGRTQYGNNNVYCQDSELSWMDWSLVDKNADLLAFARKATTLRKNHKVFRRRRFFEGEPIRSGDEVRDIAWLTPSGREMTHEDWGRGFDRCVAVFLNGEAITAPDARGERVVDDSFLLCFNAHDHDVEFVMPHDGYAQQWTGELDTNDPVGDIDLTVTATDTFSVPARSLLVLRKTL", "soluble on expression in E. coli": "not soluble"},
      {"sequence": "MKISVITINYNNGEQLEATIQSVVSNVTVLRELLGEKAEYIVIDGGSVDCSVSVLQKYSEYISYWISEKDKGIYHAMNKGISVAQGEYCFFLNSGDTFYEDDTLKKALLFLKEDFVCGNAVLKYAGGINEWSAPEIVNTLFFMQRFSVCHQSLFIRTELLKSHPYNETLMIVADYEQMFYEIAVNHRSYKKIDLTICYYGCDGVSSDHEKADAEKRSVINEFRYLGYIEPDELWNVVSKLKIGTRKYRLLLSLAKCLTSSPKYWVRLEHHHHHH", "soluble on expression in E. coli": "soluble"},
      {"sequence": "MRDYATTAAGFDLQRTAAATLSGTLQALNACVECCDRHALPGRIALFWEGKDGSRASYTFSELKALSGRFANFLQAQGVRPGDCVAGLLPRTPELLVTILGAWRLGAVYQPLFTAFGPKAIEHRVATAGSKVLVTDAANRDKLDELADPPLAVTVGGPKGQGIRRGDFSFWAELERYPAEFEPVPRSGEDPFLMMFTSGTTGLAKPVPVPLKAILAFVGYLREAVDLRPEDAFWNLADPGWAYGLYYAVAGPLAMGHPTTFYEGPFSVESTCRIIRDYGITNLAGSPTAYRLLMAAGAAAETALKGRLRAVSSAGEPLTPEVIRWFADRLGTTIHDHYGQTELGMVLCNHHALAHPVRVGAAGFACPGHRVVVLDDDLNELPPGQPGILALDRRRSPLMWFPGYQGLETAAFVGDYYLSGDTVELNEDGSISFVGRADDVITTSGYRVGPFDVESALIEHPAVMEAAVIGKPDPERTELVKAFVVLCAGHRPTPELADALQRYVRQRLSAHAYPREIEFLEELPKTPSGKIQRFLLRNQEIARQREAAPRAAAAN", "soluble on expression in E. coli": "not soluble"},
      {"sequence": "MASIDRFQVMQEPELKILEHWFENEDTRRRMDGMLLLDEWYARVNKDKHDTVIMAYDGQLPAGMVVIEFGEERTYIGLIVNPLYRLKGYGKQILQKLMTEPDFTSVREWVACIEEDNRISLACFQAAGFTLEDTEPDEDGFLTLILRNLEHHHHHH", "soluble on expression in E. coli": "not soluble"},
      {"sequence": "EVVPLAFTKAATQPAPGVKPYNALQVAGRDIYIREGCYNCHSQMIRPFRAETERYGHYSVAGESVYDHPFQWGSKRTGPDLARVGGRYSDEWHRIHLLNPRDVVPESNMPAFPWLARNKVDVDATVANMKALRKVGTPYSDEEIAKAPEALANKSELDAVVAYLQGLGLALKNVR", "soluble on expression in E. coli": "not soluble"},
      {"sequence": "MGSDKIHHHHHHMTNPISLKDPLKLPCGAVIKNRLIKSAMSDSLADGEGNATNLQARLYERWAKSGLGLSVIGEVQVDPRFPEKPGNLVLADGMDLAALRELTSRAAINGAHIWPQLSHAGGLSHLPISQPKGPSALNISQFQCAGMSIDEIYQLPDMYAKSAMLAKDVGFTGVQIHAGHGFLLSQFLSPLFNHRQDQYGGSIEARCRIIVEIIAKVRSAVGDSFPIGIKINSTDQLEGGLTQEDALAAIRILDQTSLDLIEISGGSYFPGAKSSSDSSTKGPYFAEFAATAKRLSNVPIAVTGGFKTYAQALKVIESGAVDFVGLARALVITPELAKDWLIGTATAPSFPRFKAPPQGGITAWFTMLLTAIANDSEESFELELLPALHLYEELDDARCDKWMQKFEIK", "soluble on expression in E. coli": "not soluble"}
    ]}
  ]
}
